Source: patent US20130131322A1 (MEDICAL AND BIOLOGICAL LABORATORIES, published 2013)

Key:
[1] = molecular target: T1, proTGF-α-hFc (human, UniProt P01135 24-89); experiment: solid phase ELISA, proTGFα-hFc on plate
T1 construct: not shown: Fc portion of human immunoglobulin G1, fused on the C-terminal side

[2] = molecular target: T2, G79A-substituted human TGF-α expressed on 293T cells (human, UniProt P01135 24-160); experiment: flow cytometry on 293T cells
T2 construct: Made from pDIG-TGF-α (positions 1 to 160); also called G79A substitution analog; G79A-substituted TGF-α
Method: (§1) After washed with a wash buffer twice, the cells were allowed to react with a 200-fold diluted PE-labeled anti-mouse IgG antibody (MBL CO., LTD.) at 4° C. for 60 minutes.

[3] = molecular target: T3, H74A-substituted human TGF-α expressed on 293T cells (human, UniProt P01135 24-160); experiment: flow cytometry on 293T cells
T3 construct: Made from pDIG-TGF-α (positions 1 to 160); also called H74A substitution analog
Method: as §1

[4] = molecular target: T4, TGF-α-hFc (human, UniProt P01135 40-89); experiment: solid phase ELISA, TGFα-hFc on plate
T4 construct: not shown: Fc portion of human immunoglobulin G1, fused on the C-terminal side

[5] = molecular target: commercially-available secreted TGF-α biosynthesized by Escherichia coli (R&D systems Inc.) (human, UniProt P01135 40-89); experiment: cell-based or functional assay
[6] = molecular target: T5, transmembrane TGF-α (human TGF-α positions 1 to 160) expressed on 293T cells (human, UniProt P01135 24-160); experiment: flow cytometry, culture supernatant on transmembrane TGF-α/293T
T5 construct: also called TGF-α/293T; TGFα/293T
T5 sequence: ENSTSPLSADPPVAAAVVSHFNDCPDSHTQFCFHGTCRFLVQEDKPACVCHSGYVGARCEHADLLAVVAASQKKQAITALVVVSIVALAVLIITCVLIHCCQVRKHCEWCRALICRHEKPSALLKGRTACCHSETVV

B1: MBL016-8 (antibody, mouse IgG2a, V domains shown)
VH: VQLQQSGAELVRPGASVKLSCTASGFNIKDDYMYWVKQRPEQGLEWIGRIDPANGNTKYAPKFQDKATITADTSSNTAYLHLSSLTSEDTAVFYCAYRRAYWGQGTLVTVSA
VL: DIQMTQSPSSLSASLGGKVTITCKASQDINKYIAWYQHKPGKGPRLFIHYTSKLQPGIPSRFSGSGSGRDYSFSISNLEPEDIATYYCLQYDNLLYTFGGGTKLEIK
[1]
  OD (solid phase ELISA): 1.37 OD
[2]
  binding result: no binding (tested: 5 µg/mL)
[3]
  binding result: binds
[4]
  OD (solid phase ELISA): 0.869 OD
[5]
  inhibition of EGFR tyrosine phosphorylation (P-Tyr1173) in A431 cells, antibody at 10 µg/mL: ≥ 70%

B2: humanized chimeric anti-TGF-α antibody of MBL016-8 (antibody, human IgG1, V domains shown)
VH: VQLQQSGAELVRPGASVKLSCTASGFNIKDDYMYWVKQRPEQGLEWIGRIDPANGNTKYAPKFQDKATITADTSSNTAYLHLSSLTSEDTAVFYCAYRRAYWGQGTLVTVSA
VL: DIQMTQSPSSLSASLGGKVTITCKASQDINKYIAWYQHKPGKGPRLFIHYTSKLQPGIPSRFSGSGSGRDYSFSISNLEPEDIATYYCLQYDNLLYTFGGGTKLEIK
notes: tested as 293T culture supernatant; also called recombinant antibody MBL016-8
[6]
  binding result: binds

B3: MBL292-1 (antibody, mouse IgG1, V domains shown)
VH: VQLQQSGAELVRPGASVKLSCTASGFNIKDDYMHWMKQRPEQGLEWIGRIDPANGNTKYAPKFQDKATITADTSSNTAYLQLSSLTSEDTAVYYCSRMGLLRGYWGQGTTLTVSS
VL: IQMTQSSSSLSVSLGDRVTITCKASVHINSWLAWYQQKPGNAPRLLISGATNLKTGVPSRFSGSASGKDYTLSITSLQTEDVATYYCQQYWDTPWTFGGGTKLEIK
[1]
  OD (solid phase ELISA): 1.45 OD
[2]
  binding result: no binding (tested: 5 µg/mL)
[3]
  binding result: binds
[4]
  OD (solid phase ELISA): 1.04 OD
[5]
  inhibition of EGFR tyrosine phosphorylation (P-Tyr1173) in A431 cells, antibody at 10 µg/mL: ≥ 70%

B4: humanized chimeric anti-TGF-α antibody of MBL292-1 (antibody, human IgG1, V domains shown)
VH: VQLQQSGAELVRPGASVKLSCTASGFNIKDDYMHWMKQRPEQGLEWIGRIDPANGNTKYAPKFQDKATITADTSSNTAYLQLSSLTSEDTAVYYCSRMGLLRGYWGQGTTLTVSS
VL: IQMTQSSSSLSVSLGDRVTITCKASVHINSWLAWYQQKPGNAPRLLISGATNLKTGVPSRFSGSASGKDYTLSITSLQTEDVATYYCQQYWDTPWTFGGGTKLEIK
notes: tested as 293T culture supernatant; also called recombinant antibody MBL292-1
[6]
  binding result: binds

B5: MBL184-6 (antibody, mouse IgG1, V domains shown)
VH: EVQLQQSGAELVRPGASVKLSCTVSGFNIKDDYMHWVKQRPEQGLEWIGRIDPANGHTKYAPKFQDKATITADTSSNTAYLQFSSLTSEDTAVYYCTRMGLRRGYWGQGTTLTVSS
VL: IQMTQSSSSLSVSLGDRVTITCKASEHINSWLAWYQQKPGNAPRLLISGATNLKTGVPSRFSGSASGKDYTLNITSLQTEDVATYYCQQYWGTPWTFGGGTKLEIK
[1]
  OD (solid phase ELISA): 1.4 OD
[2]
  binding result: no binding (tested: 5 µg/mL)
[3]
  binding result: binds
[4]
  OD (solid phase ELISA): 0.745 OD
[5]
  inhibition of EGFR tyrosine phosphorylation (P-Tyr1173) in A431 cells, antibody at 10 µg/mL: ≥ 70%

B6: humanized chimeric anti-TGF-α antibody of MBL184-6 (antibody, human IgG1, V domains shown)
VH: EVQLQQSGAELVRPGASVKLSCTVSGFNIKDDYMHWVKQRPEQGLEWIGRIDPANGHTKYAPKFQDKATITADTSSNTAYLQFSSLTSEDTAVYYCTRMGLRRGYWGQGTTLTVSS
VL: IQMTQSSSSLSVSLGDRVTITCKASEHINSWLAWYQQKPGNAPRLLISGATNLKTGVPSRFSGSASGKDYTLNITSLQTEDVATYYCQQYWGTPWTFGGGTKLEIK
notes: tested as 293T culture supernatant; also called recombinant antibody MBL184-6
[6]
  binding result: binds

B7: humanized chimeric anti-TGF-α antibody of MBL352-34 (antibody, human IgG1, V domains shown)
VH: VQLQQSGAELVRPGASVKLSCTASGFNIKDDYMHWVKQRPEQGLEWIGRIDPANGHTKYAPKFQDKATITADTSSNTAYLQFSSLTSEDTAVYYCTRMGLRRGYWGQGTTLTVSS
VL: IQMTQSSSSLSVSLGDRVTITCKASEHINSWLAWYQQKPGNAPRLLISGATNLKTGVPSRFSGSASGKDYTLSITSLQTEDVATYYCQQYWGTPWTFGGGTKLEIK
notes: tested as 293T culture supernatant; also called recombinant antibody MBL352-34
[6]
  binding result: binds

B8: MBL352-34 (antibody, mouse IgG1, V domains shown)
VH: VQLQQSGAELVRPGASVKLSCTASGFNIKDDYMHWVKQRPEQGLEWIGRIDPANGHTKYAPKFQDKATITADTSSNTAYLQFSSLTSEDTAVYYCTRMGLRRGYWGQGTTLTVSS
VL: IQMTQSSSSLSVSLGDRVTITCKASEHINSWLAWYQQKPGNAPRLLISGATNLKTGVPSRFSGSASGKDYTLSITSLQTEDVATYYCQQYWGTPWTFGGGTKLEIK
[1]
  OD (solid phase ELISA): 1.35 OD
[2]
  binding result: no binding (tested: 5 µg/mL)
[3]
  binding result: binds
[4]
  OD (solid phase ELISA): 0.704 OD
[5]
  inhibition of EGFR tyrosine phosphorylation (P-Tyr1173) in A431 cells, antibody at 10 µg/mL: ≥ 70%

B9: MBL144-1 (antibody, mouse IgG1, V domains shown)
VH: VQLQESGPGLAKPSQTLSLTCSVTGYSITSDYWNWIRKFPGNKLEYMGYISYSGSTYYNPSLKSRISITRDTSKNQYYLQLNSVTTEDTATYYCARSYDGICFDNWGQGTTLTVSS
VL: DILMTQSPATLSVTPGETVSLSCRASQNTYKNLHWYQQKSHGTPKLLIKYASAPISGIPSRFTGSGSGTDYTLSINSVKPEDEGIYYCLQGYSMPWTFGGGTKLEIK
[1]
  OD (solid phase ELISA): 1.42 OD
[2]
  binding result: no binding (tested: 5 µg/mL)
[3]
  binding result: binds
[4]
  OD (solid phase ELISA): 0.65 OD
[5]
  inhibition of EGFR tyrosine phosphorylation (P-Tyr1173) in A431 cells, antibody at 10 µg/mL: ≥ 70%

B10: humanized chimeric anti-TGF-α antibody of MBL144-1 (antibody, human IgG1, V domains shown)
VH: VQLQESGPGLAKPSQTLSLTCSVTGYSITSDYWNWIRKFPGNKLEYMGYISYSGSTYYNPSLKSRISITRDTSKNQYYLQLNSVTTEDTATYYCARSYDGICFDNWGQGTTLTVSS
VL: DILMTQSPATLSVTPGETVSLSCRASQNTYKNLHWYQQKSHGTPKLLIKYASAPISGIPSRFTGSGSGTDYTLSINSVKPEDEGIYYCLQGYSMPWTFGGGTKLEIK
notes: tested as 293T culture supernatant; also called recombinant antibody MBL144-1
[6]
  binding result: binds

B11: MBL009-15 (antibody, mouse IgG1, V domains shown)
VH: VQLQESGPGLVKPSQSLSLTCTVTGYSITSDYAWNWIRQFPGNKLEWMGYISYSGSTSYNPSLKSRISITRDTSKNQFFLQLNSVTTEDTATYYCARGGITRFAYWGQGTLVTVSA
VL: DIQMTQTTSSLSASLGDRLTISCRASQDIRNYLNWYQQKPDGTVKLLIYYTSRLHSGVPSRFSGSGSGTDYSLTISNLEQEDIATYFCQQGNTLPWTFGGGTKLEIK
[1]
  OD (solid phase ELISA): 1.51 OD
[2]
  binding result: no binding (tested: 5 µg/mL)
[3]
  binding result: binds
[4]
  OD (solid phase ELISA): 0.879 OD

B12: humanized chimeric anti-TGF-α antibody of MBL009-15 (antibody, human IgG1, V domains shown)
VH: VQLQESGPGLVKPSQSLSLTCTVTGYSITSDYAWNWIRQFPGNKLEWMGYISYSGSTSYNPSLKSRISITRDTSKNQFFLQLNSVTTEDTATYYCARGGITRFAYWGQGTLVTVSA
VL: DIQMTQTTSSLSASLGDRLTISCRASQDIRNYLNWYQQKPDGTVKLLIYYTSRLHSGVPSRFSGSGSGTDYSLTISNLEQEDIATYFCQQGNTLPWTFGGGTKLEIK
notes: tested as 293T culture supernatant; also called recombinant antibody MBL009-15
[6]
  binding result: binds

B13: MBL259-3 (antibody, mouse IgG2a, V domains shown)
VH: VQLQQSGAELVRPGASVKLSCTASDFNIKDDYMHWMKQRPEQGLEWIGRIDPANGNTKYAPKFQDKATMTADTSSNTAYLQFSSLTSEDTAVYYCATSWGFPYWGQGTLVTVSA
VL: DIVMTQAAPSVPVTPGESVSISCRSSKSLLHRNGNTYLYWFLQRPGQSPQLLIYRMSNLASGVPDRFSGSGSGTAFTLRISRVEAEDVGVYYCLQHLEYPYTFGSGTKLEIK
[1]
  OD (solid phase ELISA): 1.59 OD
[2]
  binding result: no binding (tested: 5 µg/mL)
[3]
  binding result: binds
[4]
  OD (solid phase ELISA): 1.11 OD

B14: humanized chimeric anti-TGF-α antibody of MBL259-3 (antibody, human IgG1, V domains shown)
VH: VQLQQSGAELVRPGASVKLSCTASDFNIKDDYMHWMKQRPEQGLEWIGRIDPANGNTKYAPKFQDKATMTADTSSNTAYLQFSSLTSEDTAVYYCATSWGFPYWGQGTLVTVSA
VL: DIVMTQAAPSVPVTPGESVSISCRSSKSLLHRNGNTYLYWFLQRPGQSPQLLIYRMSNLASGVPDRFSGSGSGTAFTLRISRVEAEDVGVYYCLQHLEYPYTFGSGTKLEIK
notes: tested as 293T culture supernatant; also called recombinant antibody MBL259-3
[6]
  binding result: binds

B15: MBL018-1 (antibody, mouse IgG1, V domains shown)
VH: EVQLQQSGTVLTRPGASVKMSCKASGYTFTNFWIHWVKQRPGQGLDWIGAIYPGNTNTDYNQKFQGKAKLTAVSSASTAYMELSSLTNEDSAVYYCTRGGAMDYWGQGTSVTVSS
VL: IVMTQTPKLLPVSAGDRVTMTCKASQSVDNSVAWYQQKPGQSPKLLIFYASNHYTGVPDRFTASGSGTDFTFTISSVQVEDLAVYFCQQHFSSPRTFGGGTKLEIR
[1]
  OD (solid phase ELISA): 1.51 OD
[2]
  binding result: no binding (tested: 5 µg/mL)
[3]
  binding result: binds
[4]
  OD (solid phase ELISA): 0.703 OD
[5]
  inhibition of EGFR tyrosine phosphorylation (P-Tyr1173) in A431 cells, antibody at 10 µg/mL: ≥ 70%

B16: humanized chimeric anti-TGF-α antibody of MBL018-1 (antibody, human IgG1, V domains shown)
VH: EVQLQQSGTVLTRPGASVKMSCKASGYTFTNFWIHWVKQRPGQGLDWIGAIYPGNTNTDYNQKFQGKAKLTAVSSASTAYMELSSLTNEDSAVYYCTRGGAMDYWGQGTSVTVSS
VL: IVMTQTPKLLPVSAGDRVTMTCKASQSVDNSVAWYQQKPGQSPKLLIFYASNHYTGVPDRFTASGSGTDFTFTISSVQVEDLAVYFCQQHFSSPRTFGGGTKLEIR
notes: tested as 293T culture supernatant; also called recombinant antibody MBL018-1
[6]
  binding result: binds
